In patent publication US20180079802A1:

Legend:
[1] = biological target: Recombinant CHIKV E2 ectodomain protein (corresponding to the CHIKV-LR2006 strain) (Chikungunya virus strain LR2006); assay: BLI competition, E2 ectodomain on anti-Penta-His tip; first mAb 3A2
[2] = biological target: Recombinant CHIKV E2 ectodomain protein (corresponding to the CHIKV-LR2006 strain) (Chikungunya virus strain LR2006); assay: BLI competition, E2 ectodomain on anti-Penta-His tip; first mAb 1O6
[3] = biological target: Recombinant CHIKV E2 ectodomain protein (corresponding to the CHIKV-LR2006 strain) (Chikungunya virus strain LR2006); assay: BLI competition, E2 ectodomain on anti-Penta-His tip; first mAb 4B8
[4] = biological target: Recombinant CHIKV E2 ectodomain protein (corresponding to the CHIKV-LR2006 strain) (Chikungunya virus strain LR2006); assay: BLI competition, E2 ectodomain on anti-Penta-His tip; first mAb 5M16
[5] = biological target: Recombinant CHIKV E2 ectodomain protein (corresponding to the CHIKV-LR2006 strain) (Chikungunya virus strain LR2006); assay: BLI competition, E2 ectodomain on anti-Penta-His tip; first mAb 1H12
[6] = biological target: Recombinant CHIKV E2 ectodomain protein (corresponding to the CHIKV-LR2006 strain) (Chikungunya virus strain LR2006); assay: BLI competition, E2 ectodomain on anti-Penta-His tip; first mAb 5O14
[7] = biological target: Recombinant CHIKV E2 ectodomain protein (corresponding to the CHIKV-LR2006 strain) (Chikungunya virus strain LR2006); assay: BLI competition, E2 ectodomain on anti-Penta-His tip; first mAb 9D14
[8] = biological target: Recombinant CHIKV E2 ectodomain protein (corresponding to the CHIKV-LR2006 strain) (Chikungunya virus strain LR2006); assay: BLI competition, E2 ectodomain on anti-Penta-His tip; first mAb CHK-141 (f2)
[9] = biological target: Recombinant CHIKV E2 ectodomain protein (corresponding to the CHIKV-LR2006 strain) (Chikungunya virus strain LR2006); assay: BLI competition, E2 ectodomain on anti-Penta-His tip; first mAb CHK-84 (f1)
[10] = biological target: Recombinant CHIKV E2 ectodomain protein (corresponding to the CHIKV-LR2006 strain) (Chikungunya virus strain LR2006); assay: BLI competition, E2 ectodomain on anti-Penta-His tip; first mAb CHK-265 (f3)
[11] = biological target: Recombinant CHIKV E2 ectodomain protein (corresponding to the CHIKV-LR2006 strain) (Chikungunya virus strain LR2006); assay: BLI competition, E2 ectodomain on anti-Penta-His tip; first mAb 5N23
[12] = biological target: Recombinant CHIKV E2 ectodomain protein (corresponding to the CHIKV-LR2006 strain) (Chikungunya virus strain LR2006); assay: BLI competition, E2 ectodomain on anti-Penta-His tip; first mAb CHK-88 (f4)
[13] = biological target: Recombinant CHIKV E2 ectodomain protein (corresponding to the CHIKV-LR2006 strain) (Chikungunya virus strain LR2006); assay: BLI competition, E2 ectodomain on anti-Penta-His tip; first mAb 5F10 (r1)
[14] = biological target: Recombinant CHIKV E2 ectodomain protein (corresponding to the CHIKV-LR2006 strain) (Chikungunya virus strain LR2006); assay: ELISA, E2 ectodomain coated

**Q.** Which percent binding of competing mAb in presence of first mAb [1] does the source give for CHK-265 (antibody) here?
**A.** Its percent binding of competing mAb in presence of first mAb is 95%.

**Q.** And the percent binding of competing mAb in presence of first mAb [2]?
**A.** The percent binding of competing mAb in presence of first mAb was 85%.

**Q.** What about the percent binding of competing mAb in presence of first mAb [3] of the same substance?
**A.** Its percent binding of competing mAb in presence of first mAb is 92%.

**Q.** What about the percent binding of competing mAb in presence of first mAb [4] of the same substance?
**A.** Its percent binding of competing mAb in presence of first mAb is 84%.

**Q.** And the percent binding of competing mAb in presence of first mAb [5]?
**A.** The percent binding of competing mAb in presence of first mAb was 52%.

**Q.** What about the percent binding of competing mAb in presence of first mAb [6] of the same substance?
**A.** The percent binding of competing mAb in presence of first mAb was 85%.

**Q.** What about the percent binding of competing mAb in presence of first mAb [7] of the same substance?
**A.** The percent binding of competing mAb in presence of first mAb was 105%.

**Q.** What about the percent binding of competing mAb in presence of first mAb [8] of the same substance?
**A.** Its percent binding of competing mAb in presence of first mAb is 86%.

**Q.** And the percent binding of competing mAb in presence of first mAb [9]?
**A.** Its percent binding of competing mAb in presence of first mAb is 92%.

**Q.** And the percent binding of competing mAb in presence of first mAb [10]?
**A.** The percent binding of competing mAb in presence of first mAb was 2%.

**Q.** And the percent binding of competing mAb in presence of first mAb [11]?
**A.** Its percent binding of competing mAb in presence of first mAb is 98%.

**Q.** What about the percent binding of competing mAb in presence of first mAb [12] of the same substance?
**A.** The percent binding of competing mAb in presence of first mAb was 3%.

**Q.** And the percent binding of competing mAb in presence of first mAb [13]?
**A.** Its percent binding of competing mAb in presence of first mAb is -3%.

**Q.** Which OD [14] does the source give for murine CHK-152 (antibody) here?
**A.** The OD was under 0.1 od.
